Source: patent US11814435B2, “Therapeutic antibodies and their uses” (PFIZER INC., priority 2015, dated 2023)
Numbering of substitutions follows the chain as printed.

B1: A02_Rd4_6 nM_C23: anti-BCMA antibody (antibody, V domains shown)
VH: EVQLLESGGGLVQPGGSLRLSCAASGFTFSSYAMNWVRQAPGKGLEWVSAISDSGGSGWYADSVKGRFTISRDNSKNTLYLQMNSLRAEDTAVYYCARYWPMSLWGQGTLVTVSS
VL: EIVLTQSPGTLSLSPGERATLSCRASQSVSVEYLAWYQQKPGQAPRLLMYDASIRATGIPDRFSGSGSGTDFTLTISRLEPEDFAVYYCQQYARWPLTFGQGTKVEIK
B2: A02_Rd4_0.6 nM_C10: anti-BCMA antibody (antibody, V domains shown)
VH: B1 VH with D53G, S54W, G58L, W59P, S103D, L104S
VL: B1 VL with V31A, E32Q, A93Q
B3: C01_Rd4_6 nM_C09: anti-BCMA antibody (antibody, V domains shown)
VH: B1 VH with A33P, N35S, I51T, S52V, D53G, G58I, W59G, S103D, L104S
VL: B1 VL with R24A, A25C, V31S, E32T, M49I, I54S, T57P, A93S, R94A
B4: A02_Rd4_0.6 nM_C13: anti-BCMA antibody (antibody, V domains shown)
VH: B1 VH with S57Y, G58R, W59Y
VL: B1 VL with V31S, E32S, L34W, A93E, R94S
B5: A02_Rd4_6 nM_C08: anti-BCMA antibody (antibody, V domains shown)
VH: B1 VH with S52L, G58T, W59Y, L104P
VL: B1 VL with V31F, E32L, A93G, R94S
B6: A02_Rd4_0.6 nM_C18: anti-BCMA antibody (antibody, V domains shown)
VH: B1 VH with I51V, S52L, G58T, W59Y
VL: B1 VL with V31E, E32L, A93F, R94G
B7: A02_Rd4_6 nM_C05: anti-BCMA antibody (antibody, V domains shown)
VH: B1 VH with S52F, D53A, G58T, W59Y, S103T, L104P
VL: B1 VL with V31S, E32S, A93Q
B8: C01_Rd4_6 nM_C10: anti-BCMA antibody (antibody, V domains shown)
VH: B1 VH with A33P, N35S, S52G, D53G, G58L, W59P, S103D, L104S
VL: B1 VL with V31S, E32V, M49I, I54S, T57P, A93S, R94T
B9: P5C1_VHVL: anti-BCMA antibody (antibody, V domains shown)
VH: B1 VH with A33P, N35S, S52G, D53G, G58T, W59Y, S103D, L104S
VL: B1 VL with V31S, E32T, M49I, I54S, T57P, A93S, R94T, W95S
B10: C01_Rd4_6 nM_C26: anti-BCMA antibody (antibody, V domains shown)
VH: B1 VH with A33P, N35S, S52G, D53G, G58L, W59P, S103D, L104S
VL: B1 VL with V31A, E32L, M49I, I54S, T57P, A93S, R94A
B11: A02_Rd4_6 nM_C10: anti-BCMA antibody (antibody, V domains shown)
VH: B1 VH with G58C, S103T, L104P
VL: B1 VL with S30E, V31M, E32S, R94H
B12: A02_Rd4_6 nM_C04: anti-BCMA antibody (antibody, V domains shown)
VH: B1 VH with S52M, D53S, S57P, G58L, W59Y, S103A
VL: B1 VL with V31A, E32L, A93Q, R94V
B13: C01_Rd4_0.6 nM_C09: anti-BCMA antibody (antibody, V domains shown)
VH: B1 VH with A33P, N35S, S52G, D53G, G58L, W59P, S103D, L104S
VL: B1 VL with V31S, E32L, Y33F, M49I, I54S, T57P, A93S, R94A
B14: C01_Rd4_6 nM_C20: anti-BCMA antibody (antibody, V domains shown)
VH: B1 VH with A33P, N35S, S52G, D53G, G58L, W59P, S103D, L104S
VL: B1 VL with V31P, E32L, M49I, I54S, T57P, A93S, R94A, W95F
B15: C01_Rd4_6 nM_C24: anti-BCMA antibody (antibody, V domains shown)
VH: B1 VH with A33P, N35S, S52G, D53G, G58L, W59P, S103D, L104S
VL: B1 VL with V31P, M49I, I54S, T57P, A93S, R94V
B16: C01_Rd4_0.6 nM_C16: anti-BCMA antibody (antibody, V domains shown)
VH: B1 VH with A33P, N35S, S52G, D53G, G58L, W59P, S103D, L104S
VL: B1 VL with V31S, E32T, M49I, I54S, T57P, A93S, R94S
B17: A02_Rd4_0.6 nM_C26: anti-BCMA antibody (antibody, V domains shown)
VH: B1 VH with S52L, D53M, G58T, W59Y
VL: B1 VL with R24G, A25P, V31S, E32S, A93Q, R94S
B18: C01_Rd4_0.6 nM_C27: anti-BCMA antibody (antibody, V domains shown)
VH: B1 VH with A33P, N35S, S52G, D53G, G58L, W59P, S103D, L104S
VL: B1 VL with V31S, E32T, M49I, I54S, T57P, A93S

test system: Cyno BCMA; experiment: Kinetics and affinity of cyno BCMA/human IgG interactions by SPR (Bio-Rad Proteon XPR36); format: binding, cynomolgus; conditions: 37° C.

Compared with B1, B2 is 3-fold lower in “ka Cyno” value: 2.63e+06 M⁻¹ s⁻¹ for the first, 883000 M⁻¹ s⁻¹ for the second.

Going from B3 to B4, the “ka Cyno” value falls from 3.73e+06 M⁻¹ s⁻¹ to 2.29e+06 M⁻¹ s⁻¹ (1.6-fold).

B5 and B6 are within 1.5-fold of each other in “ka Cyno” value: 2.23e+06 M⁻¹ s⁻¹ for the first, 3.24e+06 M⁻¹ s⁻¹ for the second.

First: B7
Second: B8
The “ka Cyno” value of the first is 3.3-fold lower: 1.36e+06 M⁻¹ s⁻¹ for the first, 4.44e+06 M⁻¹ s⁻¹ for the second.

B9 and B10 are within 1.5-fold of each other in “ka Cyno” value: 3.53e+06 M⁻¹ s⁻¹ for the first, 4.75e+06 M⁻¹ s⁻¹ for the second.

B11 and B12 are within 1.5-fold of each other in “ka Cyno” value: 1.9e+06 M⁻¹ s⁻¹ for the first, 2.18e+06 M⁻¹ s⁻¹ for the second.

B13 and B14 are within 1.5-fold of each other in “ka Cyno” value: 5.28e+06 M⁻¹ s⁻¹ for the first, 3.6e+06 M⁻¹ s⁻¹ for the second.

First: B15
Second: B16
The “ka Cyno” value of the first is 1.6-fold lower: 3.17e+06 M⁻¹ s⁻¹ for the first, 4.95e+06 M⁻¹ s⁻¹ for the second.

B17 and B18 are within 1.5-fold of each other in “ka Cyno” value: 2.71e+06 M⁻¹ s⁻¹ for the first, 3.34e+06 M⁻¹ s⁻¹ for the second.

Compared with B1, B2 is 3.9-fold higher in “kd Cyno” value: 0.000414 s⁻¹ for the first, 0.00163 s⁻¹ for the second.

Compared with B3, B4 is 6.8-fold lower in “kd Cyno” value: 0.00868 s⁻¹ for the first, 0.00128 s⁻¹ for the second.

First: B5
Second: B6
The “kd Cyno” value of the first is 18-fold higher: 0.0113 s⁻¹ for the first, 0.000639 s⁻¹ for the second.

Going from B7 to B8, the “kd Cyno” value rises from 0.00129 s⁻¹ to 0.00219 s⁻¹ (1.7-fold).

Going from B9 to B10, the “kd Cyno” value falls from 0.0538 s⁻¹ to 0.00199 s⁻¹ (27-fold).

B11 and B12 are within 1.5-fold of each other in “kd Cyno” value: 0.000898 s⁻¹ for the first, 0.000831 s⁻¹ for the second.

B13 and B14 are within 1.5-fold of each other in “kd Cyno” value: 0.00936 s⁻¹ for the first, 0.00625 s⁻¹ for the second.

First: B15
Second: B16
The “kd Cyno” value of the first is 5.2-fold lower: 0.000891 s⁻¹ for the first, 0.00464 s⁻¹ for the second.

B17 and B18 are within 1.5-fold of each other in “kd Cyno” value: 0.00256 s⁻¹ for the first, 0.00285 s⁻¹ for the second.

Going from B5 to B6, the Kd falls from 5.07 nM to 0.197 nM (26-fold).

With B12 the Kd was 0.381 nM.

target: T1, hBCMA (human BCMA) (Homo sapiens, UniProt Q02223); experiment: Kinetics and affinity of hBCMA/human IgG interactions by SPR (Bio-Rad Proteon XPR36); format: binding; conditions: human BCMA, 37° C.
T1 sequence (Q02223 1-184): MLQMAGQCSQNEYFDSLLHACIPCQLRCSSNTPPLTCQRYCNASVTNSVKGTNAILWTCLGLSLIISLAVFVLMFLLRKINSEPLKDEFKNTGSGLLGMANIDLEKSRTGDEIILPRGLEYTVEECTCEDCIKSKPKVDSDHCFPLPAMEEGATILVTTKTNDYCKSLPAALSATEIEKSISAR
How it was run: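 First, antibodies are immobilized by amine coupling onto a GLC sensor chip at 25° C. Next, hBCMA is titrated from 0.08 to 50 nM in one cycle, each injection lasting two minutes, in BSA-supplemented HBS-T+ at 37° C. or 25° C. Finally, dissociation runs two hours before kinetic-titration fitting.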

First: B1
Second: B2
The “ka Human” value of the first is 5.3-fold higher: 1.22e+07 M⁻¹ s⁻¹ for the first, 2.3e+06 M⁻¹ s⁻¹ for the second.

Going from B3 to B4, the “ka Human” value falls from 1.58e+07 M⁻¹ s⁻¹ to 8.53e+06 M⁻¹ s⁻¹ (1.9-fold).

B5 and B6 are within 1.5-fold of each other in “ka Human” value: 3.92e+06 M⁻¹ s⁻¹ for the first, 4.73e+06 M⁻¹ s⁻¹ for the second.

Going from B7 to B8, the “ka Human” value rises from 3.1e+06 M⁻¹ s⁻¹ to 1.31e+07 M⁻¹ s⁻¹ (4.2-fold).

B9 and B10 are within 1.5-fold of each other in “ka Human” value: 1.16e+07 M⁻¹ s⁻¹ for the first, 1.5e+07 M⁻¹ s⁻¹ for the second.

B11 and B12 are within 1.5-fold of each other in “ka Human” value: 4.51e+06 M⁻¹ s⁻¹ for the first, 4.47e+06 M⁻¹ s⁻¹ for the second.

First: B13
Second: B14
The “ka Human” value of the first is 2.5-fold higher: 1.51e+07 M⁻¹ s⁻¹ for the first, 6.02e+06 M⁻¹ s⁻¹ for the second.

First: B15
Second: B16
The “ka Human” value of the first is 2.1-fold lower: 7.47e+06 M⁻¹ s⁻¹ for the first, 1.55e+07 M⁻¹ s⁻¹ for the second.

Compared with B17, B18 is 1.7-fold higher in “ka Human” value: 7.26e+06 M⁻¹ s⁻¹ for the first, 1.23e+07 M⁻¹ s⁻¹ for the second.

B1 and B2 are within 1.5-fold of each other in “kd Human” value: 0.000255 s⁻¹ for the first, 0.000296 s⁻¹ for the second.

Going from B3 to B4, the “kd Human” value falls from 0.0128 s⁻¹ to 0.000566 s⁻¹ (23-fold).

First: B5
Second: B6
The “kd Human” value of the first is 3.2-fold higher: 0.000738 s⁻¹ for the first, 0.000229 s⁻¹ for the second.

Going from B7 to B8, the “kd Human” value rises from 0.000308 s⁻¹ to 0.00212 s⁻¹ (6.9-fold).

First: B9
Second: B10
The “kd Human” value of the first is 51-fold higher: 0.0692 s⁻¹ for the first, 0.00136 s⁻¹ for the second.

Compared with B11, B12 is 1.9-fold higher in “kd Human” value: 0.000315 s⁻¹ for the first, 0.000603 s⁻¹ for the second.

Compared with B13, B14 is 3-fold lower in “kd Human” value: 0.00825 s⁻¹ for the first, 0.00276 s⁻¹ for the second.

First: B15
Second: B16
The “kd Human” value of the first is 1.8-fold lower: 0.00348 s⁻¹ for the first, 0.0063 s⁻¹ for the second.

Going from B17 to B18, the “kd Human” value rises from 0.000443 s⁻¹ to 0.00374 s⁻¹ (8.4-fold).

First: B5
Second: B6
The Kd of the first is 3.9-fold higher: 0.188 nM for the first, 0.048 nM for the second.

In the case of B12, the Kd is reported as 0.135 nM.
